Test results as given in patent publication US9260500B2, “Peptide and use thereof” (Takeda Pharmaceutical Company Limited, priority 2009, dated 2016).
Non-standard residues stand in square brackets, D forms with d. *: point of attachment. (5-carboxypentyl)carbamoyl = O=C(O)CCCCCNC(=O)*; (2-amino-2-oxoethyl)carbamoyl = NC(=O)CNC(=O)*; (3-Carboxypropyl)carbamoyl = O=C(O)CCCNC(=O)*; (3-carboxypropyl)carbamoyl = O=C(O)CCCNC(=O)*; (2-Carboxyethyl)carbamoyl = O=C(O)CCNC(=O)*; (2-carboxyethyl)carbamoyl = O=C(O)CCNC(=O)*; (carboxymethyl)carbamoyl = O=C(O)CNC(=O)*; tBuAla = CC(C)(C)C[C@H](N)C(=O)O; 4Pal = N[C@@H](Cc1ccncc1)C(=O)O; dHyp = O=C(O)[C@H]1C[C@H](O)CN1; Cha = N[C@@H](CC1CCCCC1)C(=O)O; Isonicotinoyl = O=C(c1ccncc1)*; Iva = CC[C@](C)(N)C(=O)O; Aib = CC(C)(N)C(=O)O

Legend:
human Y2 receptor [1] = target: T1, human Y2 receptor (Homo sapiens, UniProt P49146); experiment: Receptor Binding Assay (RBA) for Human Y2, [125I]-PYY displacement on hY2R/CHO membrane fraction; conditions: IC50 of test compound/IC50 of PYY(3-36) (PYY(3-36) taken as 1)
T1 construct: expressed in transfected cells; membrane fraction
T1 sequence (P49146 1-381): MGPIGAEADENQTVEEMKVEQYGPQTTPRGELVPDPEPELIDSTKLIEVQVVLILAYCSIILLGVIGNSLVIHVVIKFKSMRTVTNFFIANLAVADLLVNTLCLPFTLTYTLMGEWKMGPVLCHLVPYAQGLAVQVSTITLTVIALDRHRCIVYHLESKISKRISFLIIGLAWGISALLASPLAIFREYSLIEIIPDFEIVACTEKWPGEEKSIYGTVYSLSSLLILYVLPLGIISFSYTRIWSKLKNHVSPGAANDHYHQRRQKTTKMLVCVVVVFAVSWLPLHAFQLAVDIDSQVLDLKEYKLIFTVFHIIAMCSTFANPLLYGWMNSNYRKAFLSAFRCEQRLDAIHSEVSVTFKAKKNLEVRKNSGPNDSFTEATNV
How it was run: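 hY2R stably expressed in CHO/dhfr− cells; membrane fraction prepared from cells disrupted in 10 mM NaHCO3, 5 mM EDTA buffer with protease inhibitors. Binding read as displacement of [125I]-PYY.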

male C57EL/6J mice = experiment: 3-Days Continuous Subcutaneous Administration Test-1 (food intake suppressing activity); format: in vivo, mouse; conditions: 0.03 mg/kg/day, subcutaneous Alzet pump, food consumption over 3 days; relative to food intake suppression rate for PYY(3-36) (1 mg/kg/day) taken as 100%
Procedure: (4) Test Method: 3-Days Continuous Subcutaneous Administration Test-1
The food intake suppressing activity of the compound of the present invention was examined by the method described below.
The test compound was dissolved in 50% DMSO so that sustained release would occur at 0.03 mg/kg/day, and the solution was filled in the Alzet Pump (Alzet model: 1003D, sustained release rate: 1 μL/hr, capacity: 100 μL). After the filling, the pump was placed in a 2 mL Eppendorf tube containing 330 μL of physiological saline, and incubated at 37° C. for 2 hours or more. Thereafter, this pump was subcutaneously embedded in the back of each mouse by the method described below. After weighing, each male […] mice at 12-13 weeks of age (25° C., allowed to take food and water ad libitum; 12-hour bright-12-hour dark cycle, lighting turned on at 08:00) was anesthetized with diethyl ether; the skin in the upper back thereof was incised, and the above-mentioned pump was embedded subcutaneously. Thereafter, several drops of penicillin solution (100000 units/mL) were added to the incised part, and the incision was sutured using Michel's surgical needle. This mouse was returned to the rearing cage (reared alone), and given previously weighed food; 3 days later, the amount of remaining food was measured. Food consumption was calculated by subtracting the amount of remaining food after 3 days from the weight of the food given on the day of pump embedding. The food intake suppressing activity of each test compound was expressed as a food intake suppression rate (%) relative to the food intake suppression rate for PYY(3-36) (1 mg/kg/day) taken as 100%.

human Y2 receptor [2] = target: T1, human Y2 receptor; experiment: Human Y2 Receptor G Protein Binding Assay (GBA), [35S]GTPγS; format: biochemical; conditions: EC50 of test compound/EC50 of PYY(3-36) (PYY3-36 taken as 1), hY2R/CHO membrane fraction
How it was run: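 Agonism measured as [35S]GTPγS binding, read by GF/C filtration and scintillation counting after 120 min at room temperature, using human Y2 membranes at 1 μg protein/mL in pH 7.4 Tris/MgCl2/NaCl/GDP buffer. Compound serially diluted 100 μM–1 nM; EC50 normalized to PYY(3-36) (ratio = compound/PYY).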

Substance: 4-Pyridinecarbonyl-[D-Hyp24, Iva25, Pya(4)26, Cha27,36, Leu(Me)28, Lys30, Aib31]-PYY(23-36) (Isonicotinoyl-S[dHyp][Iva][4Pal][Cha][tBuAla]NK[Aib]TRQR[Cha]-NH2; SMILES CC[C@](C)(NC(=O)[C@H]1C[C@H](O)CN1C(=O)[C@H](CO)NC(=O)c1ccncc1)C(=O)N[C@@H](Cc1ccncc1)C(=O)N[C@@H](CC1CCCCC1)C(=O)N[C@@H](CC(C)(C)C)C(=O)N[C@@H](CC(N)=O)C(=O)N[C@@H](CCCCN)C(=O)NC(C)(C)C(=O)N[C@H](C(=O)N[C@@H](CCCNC(=N)N)C(=O)N[C@@H](CCC(N)=O)C(=O)N[C@@H](CCCNC(=N)N)C(=O)N[C@@H](CC1CCCCC1)C(N)=O)[C@@H](C)O) [compound No. 333]
- RBA IC50 Ratio (human Y2 receptor [1]): 0.93
- food intake suppression rate (%) (male C57EL/6J mice): 28%
- GBA EC50 Ratio (human Y2 receptor [2]): 1.6

Substance: 4-Pyridinecarbonyl-[D-Pro24, Iva25, Pya(4)26, Cha27,36, Aib28,31, Lys30]-PYY(23-36) (Isonicotinoyl-S[dP][Iva][4Pal][Cha][Aib]NK[Aib]TRQR[Cha]-NH2; SMILES CC[C@](C)(NC(=O)[C@H]1CCCN1C(=O)[C@H](CO)NC(=O)c1ccncc1)C(=O)N[C@@H](Cc1ccncc1)C(=O)N[C@@H](CC1CCCCC1)C(=O)NC(C)(C)C(=O)N[C@@H](CC(N)=O)C(=O)N[C@@H](CCCCN)C(=O)NC(C)(C)C(=O)N[C@H](C(=O)N[C@@H](CCCNC(=N)N)C(=O)N[C@@H](CCC(N)=O)C(=O)N[C@@H](CCCNC(=N)N)C(=O)N[C@@H](CC1CCCCC1)C(N)=O)[C@@H](C)O) [compound No. 301]
- RBA IC50 Ratio (human Y2 receptor [1]): 1.0
- food intake suppression rate (%) (male C57EL/6J mice): 35%
- GBA EC50 Ratio (human Y2 receptor [2]): 1.1

Substance: (2-Carboxyethyl)carbamoyl-[D-Pro24, Iva25, Pya(4)26, Cha27,36, Aib28,31, Lys30]-PYY(23-36) ({(2-carboxyethyl)carbamoyl}-S[dP][Iva][4Pal][Cha][Aib]NK[Aib]TRQR[Cha]-NH2; SMILES CC[C@](C)(NC(=O)[C@H]1CCCN1C(=O)[C@H](CO)NC(=O)NCCC(=O)O)C(=O)N[C@@H](Cc1ccncc1)C(=O)N[C@@H](CC1CCCCC1)C(=O)NC(C)(C)C(=O)N[C@@H](CC(N)=O)C(=O)N[C@@H](CCCCN)C(=O)NC(C)(C)C(=O)N[C@H](C(=O)N[C@@H](CCCNC(=N)N)C(=O)N[C@@H](CCC(N)=O)C(=O)N[C@@H](CCCNC(=N)N)C(=O)N[C@@H](CC1CCCCC1)C(N)=O)[C@@H](C)O) [compound No. 341]
- RBA IC50 Ratio (human Y2 receptor [1]): 3.2
- food intake suppression rate (%) (male C57EL/6J mice): 35%
- GBA EC50 Ratio (human Y2 receptor [2]): 2.4

Substance: (2-Carboxyethyl)carbamoyl-[D-Pro24, Pya(4)26, Cha27,36, Aib28,31, Lys30]-PYY(23-36) ({(2-Carboxyethyl)carbamoyl}-S[dP]R[4Pal][Cha][Aib]NK[Aib]TRQR[Cha]-NH2; SMILES C[C@@H](O)[C@H](NC(=O)C(C)(C)NC(=O)[C@H](CCCCN)NC(=O)[C@H](CC(N)=O)NC(=O)C(C)(C)NC(=O)[C@H](CC1CCCCC1)NC(=O)[C@H](Cc1ccncc1)NC(=O)[C@H](CCCNC(=N)N)NC(=O)[C@H]1CCCN1C(=O)[C@H](CO)NC(=O)NCCC(=O)O)C(=O)N[C@@H](CCCNC(=N)N)C(=O)N[C@@H](CCC(N)=O)C(=O)N[C@@H](CCCNC(=N)N)C(=O)N[C@@H](CC1CCCCC1)C(N)=O) [compound No. 326]
- RBA IC50 Ratio (human Y2 receptor [1]): 1.3
- food intake suppression rate (%) (male C57EL/6J mice): 57%
- GBA EC50 Ratio (human Y2 receptor [2]): 0.94

Substance: (2-amino-2-oxoethyl)carbamoyl-[D-Pro24, Pya(4)26, Cha27,36, Aib28,31, Lys30]-PYY(23-36) ({(2-amino-2-oxoethyl)carbamoyl}-S[dP]R[4Pal][Cha][Aib]NK[Aib]TRQR[Cha]-NH2; SMILES C[C@@H](O)[C@H](NC(=O)C(C)(C)NC(=O)[C@H](CCCCN)NC(=O)[C@H](CC(N)=O)NC(=O)C(C)(C)NC(=O)[C@H](CC1CCCCC1)NC(=O)[C@H](Cc1ccncc1)NC(=O)[C@H](CCCNC(=N)N)NC(=O)[C@H]1CCCN1C(=O)[C@H](CO)NC(=O)NCC(N)=O)C(=O)N[C@@H](CCCNC(=N)N)C(=O)N[C@@H](CCC(N)=O)C(=O)N[C@@H](CCCNC(=N)N)C(=O)N[C@@H](CC1CCCCC1)C(N)=O) [compound No. 292]
- RBA IC50 Ratio (human Y2 receptor [1]): 1.2
- food intake suppression rate (%) (male C57EL/6J mice): 36%
- GBA EC50 Ratio (human Y2 receptor [2]): 0.74

Substance: (3-Carboxypropyl)carbamoyl-[D-Hyp24, Iva25, Pya(4)26, Cha27,36, Leu(Me)28, Lys30, Aib31]-PYY(23-36) ({(3-Carboxypropyl)carbamoyl}-S[dHyp][Iva][4Pal][Cha][tBuAla]NK[Aib]TRQR[Cha]-NH2; ends and bridges not checked) [compound No. 349]
- RBA IC50 Ratio (human Y2 receptor [1]): 0.57
- food intake suppression rate (%) (male C57EL/6J mice): 52%
- GBA EC50 Ratio (human Y2 receptor [2]): 1.7

Substance: (3-Carboxypropyl)carbamoyl-[D-Pro24, Iva25, Pya(4)26, Cha27,36, Aib28,31, Lys30]-PYY(23-36) ({(3-Carboxypropyl)carbamoyl}-S[dP][Iva][4Pal][Cha][Aib]NK[Aib]TRQR[Cha]-NH2; SMILES CC[C@](C)(NC(=O)[C@H]1CCCN1C(=O)[C@H](CO)NC(=O)NCCCC(=O)O)C(=O)N[C@@H](Cc1ccncc1)C(=O)N[C@@H](CC1CCCCC1)C(=O)NC(C)(C)C(=O)N[C@@H](CC(N)=O)C(=O)N[C@@H](CCCCN)C(=O)NC(C)(C)C(=O)N[C@H](C(=O)N[C@@H](CCCNC(=N)N)C(=O)N[C@@H](CCC(N)=O)C(=O)N[C@@H](CCCNC(=N)N)C(=O)N[C@@H](CC1CCCCC1)C(N)=O)[C@@H](C)O) [compound No. 328]
- RBA IC50 Ratio (human Y2 receptor [1]): 1.6
- food intake suppression rate (%) (male C57EL/6J mice): 75%
- GBA EC50 Ratio (human Y2 receptor [2]): 1.9

Substance: (3-carboxypropyl)carbamoyl-[D-Pro24, Pya(4)26, Cha27,36, Aib28,31, Lys30]-PYY(23-36) ({(3-carboxypropyl)carbamoyl}-S[dP]R[4Pal][Cha][Aib]NK[Aib]TRQR[Cha]-NH2; SMILES C[C@@H](O)[C@H](NC(=O)C(C)(C)NC(=O)[C@H](CCCCN)NC(=O)[C@H](CC(N)=O)NC(=O)C(C)(C)NC(=O)[C@H](CC1CCCCC1)NC(=O)[C@H](Cc1ccncc1)NC(=O)[C@H](CCCNC(=N)N)NC(=O)[C@H]1CCCN1C(=O)[C@H](CO)NC(=O)NCCCC(=O)O)C(=O)N[C@@H](CCCNC(=N)N)C(=O)N[C@@H](CCC(N)=O)C(=O)N[C@@H](CCCNC(=N)N)C(=O)N[C@@H](CC1CCCCC1)C(N)=O) [compound No. 293]
- RBA IC50 Ratio (human Y2 receptor [1]): 1.2
- food intake suppression rate (%) (male C57EL/6J mice): 51%
- GBA EC50 Ratio (human Y2 receptor [2]): 0.97

Substance: (5-carboxypentyl)carbamoyl-[D-Pro24, Pya(4)26, Cha27,36, Aib28,31, Lys30]-PYY(23-36) ({(5-carboxypentyl)carbamoyl}-S[dP]R[4Pal][Cha][Aib]NK[Aib]TRQR[Cha]-NH2; SMILES C[C@@H](O)[C@H](NC(=O)C(C)(C)NC(=O)[C@H](CCCCN)NC(=O)[C@H](CC(N)=O)NC(=O)C(C)(C)NC(=O)[C@H](CC1CCCCC1)NC(=O)[C@H](Cc1ccncc1)NC(=O)[C@H](CCCNC(=N)N)NC(=O)[C@H]1CCCN1C(=O)[C@H](CO)NC(=O)NCCCCCC(=O)O)C(=O)N[C@@H](CCCNC(=N)N)C(=O)N[C@@H](CCC(N)=O)C(=O)N[C@@H](CCCNC(=N)N)C(=O)N[C@@H](CC1CCCCC1)C(N)=O) [compound No. 294]
- RBA IC50 Ratio (human Y2 receptor [1]): 1.2
- food intake suppression rate (%) (male C57EL/6J mice): 45%
- GBA EC50 Ratio (human Y2 receptor [2]): 1.5

Substance: (Carboxymethyl)carbamoyl-[D-Pro24, Iva25, Pya(4)26, Cha27,36, Aib28,31, Lys30]-PYY(23-36) ({(carboxymethyl)carbamoyl}-S[dP][Iva][4Pal][Cha][Aib]NK[Aib]TRQR[Cha]-NH2; SMILES CC[C@](C)(NC(=O)[C@H]1CCCN1C(=O)[C@H](CO)NC(=O)NCC(=O)O)C(=O)N[C@@H](Cc1ccncc1)C(=O)N[C@@H](CC1CCCCC1)C(=O)NC(C)(C)C(=O)N[C@@H](CC(N)=O)C(=O)N[C@@H](CCCCN)C(=O)NC(C)(C)C(=O)N[C@H](C(=O)N[C@@H](CCCNC(=N)N)C(=O)N[C@@H](CCC(N)=O)C(=O)N[C@@H](CCCNC(=N)N)C(=O)N[C@@H](CC1CCCCC1)C(N)=O)[C@@H](C)O) [compound No. 327]
- RBA IC50 Ratio (human Y2 receptor [1]): 3.0
- food intake suppression rate (%) (male C57EL/6J mice): 58%
- GBA EC50 Ratio (human Y2 receptor [2]): 1.6
